Target: 16055 NFL trimer (native flexibly linked HIV-1 Env stabilized trimer, clade C strain 16055) (HIV-1, clade C, strain 16055)

B1: D11A.B5 Fab (Fab, V domains shown)
VH: HLQLQESGPGLVKPSETLSLTCAVSGGSSSDYWWSWIRQPPGKGLEWIGRIDSIGNTYYNPSLRSRVTLSVDTSKNQFSLELTSVTAADTAVYYCARPYCAIGRCYESWGQGVLVTVSS
VL: EVVFTQPHSVSGSPGQTVTISCTRTSGSIDSEYVQWYQQRPGSAPTIVIYRDNQRPSGVPDRFSGSIDSSSNSASLAISGLKSEDEADYYCQSSDDSYNWVFGGGTRLTVL
- IC50 of neutralisation of the autologous 16055 pseudovirus (TZM-bl cells); the mAb on Env of the virus: 3.68 μg/mL

B2: VD20.5A4 Fab (Fab, V domains shown)
VH: QVQLQESGPGLVKPSETLSLTCAVSGASISSNYWSWIRQPPGKGLEWIGRIYDPTDSTDYNPSLESRATISKDTSKNHFSLTLSSVTAADTAVYFCARGLWSGYFFWFDVWGPGVLVTVSS
VL: DIQMTQSPSSLSASVGDSVTVTCRASQGIDKELSWYQQKPGKAPTLLIYAASSLQTGVSSRFSGSGSGTDYTLTISSLQPEDVATYYCLQDYATPYSFGQGTKVEIK
- IC50 of neutralisation of the autologous 16055 pseudovirus (TZM-bl cells); the mAb on Env of the virus: 0.005 μg/mL
